Laboratory results from patent US5558865.

What was measured:
[1] = target: native HIV-1IIIB gp120 (HIV-1 strain IIIB) (UniProt P04578)
[2] = target: native HIV-1MN gp120 (HIV-1 strain MN) (UniProt P05877)
[3] = target: native HIV-1IIIB gp120 (HIV-1 strain IIIB) (UniProt P04578); remark: listed apart in the source
[4] = target: native HIV-1MN gp120 (HIV-1 strain MN) (UniProt P05877); remark: listed apart in the source
[5] = target: gp120 of HIV-1 strain RF (HIV-1 strain RF)
[6] = target: peptide of amino acids 302-316 of HIV-1MN gp120 (HIV-1 strain MN); assay: peptide ELISA, 500 ng MIgG
[7] = target: peptide of amino acids 312-326 of HIV-1MN gp120 (HIV-1 strain MN); assay: peptide ELISA, 500 ng MIgG
[8] = target: peptide of amino acids 322-336 of HIV-1MN gp120 (HIV-1 strain MN); assay: peptide ELISA, 500 ng MIgG

Chain of monoclonal antibody NM-01 (VH): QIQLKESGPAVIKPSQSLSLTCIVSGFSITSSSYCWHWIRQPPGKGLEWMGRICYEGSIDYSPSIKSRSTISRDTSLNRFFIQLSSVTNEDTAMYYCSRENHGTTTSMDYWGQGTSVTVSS
Chain of monoclonal antibody NM-01 (VL): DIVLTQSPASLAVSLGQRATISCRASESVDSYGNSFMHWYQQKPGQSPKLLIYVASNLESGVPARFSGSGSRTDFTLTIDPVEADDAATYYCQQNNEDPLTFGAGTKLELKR

Substance: monoclonal antibody NM-01
- ID50, MT-2 assay (cell viability by MTT), live IIIB virus [1]: 0.1 µg/mL
- ID50, MT-2 assay (cell viability by MTT), live MN virus [2]: 2 µg/mL
- ID50, syncytium formation of IIIB-infected H9 cells with C8166 cells [3]: 3 µg/mL
- ID50, syncytium formation of MN-infected H9 cells with C8166 cells [4]: 2 µg/mL
- ID50, syncytium formation of RF-infected cells [5]: 4 µg/mL

Substance: mouse IgG (polyclonal serum or antibody)
- optical density at 650 nm [6]: 0.049 OD 650 nm
- optical density at 650 nm [7]: 0.043 OD 650 nm
- optical density at 650 nm [8]: 0.042 OD 650 nm
